Source: patent US12551573B2, “Compositions and methods for the targeting of PCSK9” (Scribe Therapeutics Inc., priority 2022, dated 2026)
Numbering of substitutions follows the chain as printed. Where two headings read alike, the source gives them in different places.

Test system: HBEGF locus
Type: cell-based, human
Settings: high-throughput screen of dXR repression of the HBEGF gene
[1] = abundance of each domain in the library before and after diphtheria toxin selection, HEK293T cells

B1: DOMAIN_14946 (protein, listed as Acinonyx jubatus)
chain: LQVSVSFEDVTVNFSREEWQRLDPAQRRLYRDVTLENYSHLRSVGYQVPKPEVIFKLEQGEGPWTLEGETPHQSCSGEDIG
- Log2 (fold change) [1]: 3.2842

B2: DOMAIN_14983 (protein, listed as Rhinopithecus roxellana)
chain: MAFEDVAVYFSQEEWGLLDTAQRALYRRVMLDNFALVASLGLSTSRPRVVIQLERGEEPWVPSGTDTVLSRNTYRRRNPGS
- Log2 (fold change) [1]: 3.704

B3: DOMAIN_15089 (protein)
chain: SQELVAFEDVLVDFTPEEWQYLNSSQKTLYREVMLETYSNLVSVAGQQDTKPDLILKLELEGPCLAERKISVWSFPEEACQ
modifications: Vulpes vulpes
- Log2 (fold change) [1]: 2.3585

B4: DOMAIN_15138 (protein)
chain: CEGSVSFEDVTMDFSREEWQQLDPAQRCLYQDVMLEIYSHLLFVGYNIPNPEIISRMEKGEEPWMREVQLPHQRHRERAFG
modifications: Vulpes vulpes
- Log2 (fold change) [1]: 3.1771

B5: DOMAIN_15184 (protein, listed as Acinonyx jubatus)
chain: ASVVFEDVAVNFTPEEWALLNPGQRKLYRDVMLETCRNLSAVGCRSQGNTSTPRPQWSILLNEPPGEDKTGIFTRKDSCSV
- Log2 (fold change) [1]: 3.0092

B6: DOMAIN_15227 (protein, listed as Rhinopithecus roxellana)
chain: MAFEDVAVYFSQEEWGLLDTAQRALYRHVMLDNFTLVTSLGLSTSRPHVVIQLERGEEPWVPSGKDMTLARNTYRRLNAGE
- Log2 (fold change) [1]: 3.5532

B7: DOMAIN_15251 (protein, listed as Callithrix jacchus)
chain: AAGRVTFEDVTVSFTKGEWQQLNPEQRELYRDVMLENYGNLVSVGLEETSKPSVILRLEEGKEPWSEEEVLRGGRPEKNWD
- Log2 (fold change) [1]: 2.2209

B8: DOMAIN_15269 (protein)
chain: YRGPVTFKDITVEFTREEWKLLDTAQRTLYREVMQENYSHLISVGYCANRPNAIFKLKQGKEPWILEVQFPRQKNPEDLCN
modifications: Ovis aries
- Log2 (fold change) [1]: 2.0839

B9: DOMAIN_15279 (protein, listed as Callithrix jacchus)
chain: VNDLVTFKDVAIDFSQEEWQWMNPAQKRLYRSMMLENYQSLVSLGLCVSKPYVISLLEQGREPWEMTSEMRRSPFSDWESI
- Log2 (fold change) [1]: 3.8574

B10: DOMAIN_15356 (protein, listed as Acinonyx jubatus)
chain: TPDVVTFEDVAVCFSSGEWQCLTRAQRHLYTDVMLENYGNMLSAGLACPKPPLISHLEQGAVPCAEDLQDWGFLTCSFPVS
- Log2 (fold change) [1]: 3.5466

B11: DOMAIN_24125 (protein, listed as Saimiri boliviensis)
chain: B2 chain with S45T, T67M, V68T, L69M, T73A, Y74H
- Log2 (fold change) (change in abundance of each domain in the library before and after diphtheria toxin selection): 3.9692

B12: DOMAIN_15406 (protein)
chain: B6 chain with H28R, T35A, T38A, H48R, R75G, A79S, E81S
modifications: Pan troglodytes
- Log2 (fold change) [1]: 3.4616

B13: DOMAIN_15451 (protein)
chain: PLKLVTFEDVAVDFTQEEWSLLDKSQKNLFRNVMMETIHHLVSVGYQISKSDVISQLEQGKELWSKAAGGFQGQRPGEHQG
modifications: Bison bison
- Log2 (fold change) [1]: 3.2905

B14: DOMAIN_15638 (protein, listed as Sapajus apella)
chain: B2 chain with T67M, V68T, L69M, Y74H, P79S, S81F
- Log2 (fold change) [1]: 3.4277

B15: DOMAIN_15669 (protein, listed as Callorhinus ursinus)
chain: FQDSVTFEDVAVRFSSGEWQCLTRAQRHLYADVMLENYWNVISVGFAVPKPPLISHLEQGAEPCVQDLQDGGFLSCSFPVS
- Log2 (fold change) [1]: 2.8865

B16: DOMAIN_15800 (protein, listed as Otolemur garnettii)
chain: MAFEDVAVYFSQEEWGLLDTAQRALYRHVMLENFTLVSSLGLSTSRPRVVVQLERGEEPWVPSRIDSTPARNAQGRRNPGS
- Log2 (fold change) [1]: 3.4462

B17: DOMAIN_15839 (protein, listed as Callithrix jacchus)
chain: AQESMTFRDVAVFFSQDEWLHLDSAQRALYREVMLENYSTLVSLGIPFSMPKVIHQLQQGQDPCTVEGDVPSNTCLGFKTW
- Log2 (fold change) [1]: 2.3399

B18: DOMAIN_15863 (protein)
chain: CWGLLSFKDISMEFTWEEWQLLDSAQKYLYRDVILENYSHLVSLGYHGTKPDLIFKLEQGEEPWMINARVSRQSYPEGWKE
modifications: Vulpes vulpes
- Log2 (fold change) [1]: 2.7434

B19: DOMAIN_16050 (protein)
chain: PLESVTFEDVAVDFTQEEWSLLDKSQKNLFRNVMLETVTHLVSVGYQISKSDVIFQLEQGKELWPEAAGGLQGQSPDEVTP
modifications: Ovis aries
- Log2 (fold change) [1]: 2.7105

B20: DOMAIN_16115 (protein, listed as Bos taurus)
chain: VQGSVSFEDVAVGFSQEEWQILGPSQKALYWDVMLENYCNLVSVGYQAPTPNSLFQLEQGGPPWTVEGAALSSTCSGYQAT
- Log2 (fold change) [1]: 2.9023

B21: DOMAIN_16246 (protein, listed as Macaca mulatta)
chain: ASVTVTFDDVALYFSEQEWEILEKWQKQMYKQEMKTNYQTLDSLGYAFSKPDLITWMEQGRMLFISEQGCLDKTRRTTSPP
- Log2 (fold change) [1]: 2.3971

B22: DOMAIN_16461 (protein)
chain: AQESVTFEDVAVNFTDREWQCLTYAQRHLYKDVMLENYGNMVSVGFPFPKPPLISHLERGVELCVQDPQDRESLSCSCLVS
modifications: Cebus imitator
- Log2 (fold change) [1]: 3.1155

B23: DOMAIN_16534 (protein, listed as Acinonyx jubatus)
chain: SHGPLSFEDVAVAFTKEEWQQLDPAQRTLYRDVMLENFSHVISLGHPVSKPDVISKLEQGEEPWIIKRDVSDWIYPERETR
- Log2 (fold change) [1]: 2.7531

B24: DOMAIN_16556 (protein, listed as Rhinopithecus roxellana)
chain: B22 chain with D16N, C21S, D32H, G39R, V44L, L63P, R71K, C78Y, L79P
- Log2 (fold change) [1]: 2.4217

B25: DOMAIN_16566 (protein, listed as Odocoileus virginianus)
chain: HQESLTFKDVAVNFTQEEWHHVDAAQRRLYKDVMLENYSHLVSLGYQVSKPEVIFKLEQGEEPWIAEGEIQRPVCPDWKTR
- Log2 (fold change) [1]: 3.3903

B26: DOMAIN_16611 (protein, listed as Papio anubis)
chain: B6 chain with D32E, H48Y, E81S
- Log2 (fold change) [1]: 3.4786

B27: DOMAIN_16694 (protein, listed as Callorhinus ursinus)
chain: SYGSFSFEDVTVGFTQEEWQHLGPAQRILYRDVMLENYSHLVSVGCCIPKPEVILKLEQGEQPWILEEESPSQSYPGLPTD
- Log2 (fold change) [1]: 2.0979

B28: DOMAIN_16738 (protein)
chain: B2 chain with A21T, R28H, D32E, A35T, A38T, R48H, V68T, N72T
modifications: Pan troglodytes
- Log2 (fold change) [1]: 3.5957

B29: DOMAIN_16811 (protein, listed as Balaenoptera acutorostrata)
chain: PQASVSFKDVTVEFTQEEWWQMDSAQRTLYRDVMLENYSHLVSVGYCFTKPELIFMLEQGEDPWLLEKEFVNRSSPEESQP
- Log2 (fold change) [1]: 3.5141
